Laboratory results from patent US20190233512A1 (SUTRO BIOPHARMA, published 2019).
Substitutions are numbered along the chain they refer to.

B1: SRP1848-E06 (antibody, V domains shown)
VH: EVQLVESGGGLVQPSGSLRLSCAASGFNINRYYIHWVRQAPGKGLEWVGGITPNDGYTDYADSVEGRFTTSADTSKNTAYLQMNSLRAEDTAVYYCARGTWSWPSGHSYYLDYWGQGTLVTVSS
VL: not shown
notes: VH/VL only; Fc-bearing IgG format with trastuzumab LC, HIS/FLAG-tagged, cell-free expressed; constant regions not tied; also called Antibody 35
B2: SRP1848-G04 (antibody, V domains shown)
VH: EVQLVESGGGLVQPGGSLRLSCAASGFNIHSTDIHWVRQAPGKGLEWVAYITPAGGATFYADSVKGRFTISADTSKNTAYLQMNSLRAEDTAVYYCARYPYWFAGYMDYWGQGTLVTVSS
VL: not shown
notes: VH/VL only; Fc-bearing IgG format with trastuzumab LC, HIS/FLAG-tagged, cell-free expressed; constant regions not tied; also called Antibody 49
B3: SRP1848-G07 (antibody, V domains shown)
VH: B2 VH with F59W, Y101F
VL: not shown
notes: VH/VL only; Fc-bearing IgG format with trastuzumab LC, HIS/FLAG-tagged, cell-free expressed; constant regions not tied; also called Antibody 51
B4: SRP1848-G09 (antibody, V domains shown)
VH: B2 VH with H30R, S31G, Y99H, P100E, A104S
VL: not shown
notes: VH/VL only; Fc-bearing IgG format with trastuzumab LC, HIS/FLAG-tagged, cell-free expressed; constant regions not tied; also called Antibody 52
B5: SRP1848-G06 (antibody, V domains shown)
VH: B2 VH with H30R, F59Y, S63N, Y99Q
VL: not shown
notes: VH/VL only; Fc-bearing IgG format with trastuzumab LC, HIS/FLAG-tagged, cell-free expressed; constant regions not tied; also called Antibody 50
B6: SRP1848-G10 (antibody, V domains shown)
VH: B2 VH with G16S, H30R, F59Y, M107I
VL: not shown
notes: VH/VL only; Fc-bearing IgG format with trastuzumab LC, HIS/FLAG-tagged, cell-free expressed; constant regions not tied; also called Antibody 53
B7: SRP1848-G11 (antibody, V domains shown)
VH: B2 VH with H30S, F59W, A104S
VL: not shown
notes: VH/VL only; Fc-bearing IgG format with trastuzumab LC, HIS/FLAG-tagged, cell-free expressed; constant regions not tied; also called Antibody 54
B8: SRP1848-A01 (antibody, V domains shown)
VH: EVQLVESGGGLVQPGGSLRLSCAASGFNITRYSIHWVRQAPGKGLEWVAGILPESGGTSYADSVKGRFTISADTSKNTAYLQMNSLRAEDTAVYYCARHIYPWDWFSNYVLDYWGQGTLVTVSS
VL: not shown
notes: VH/VL only; Fc-bearing IgG format with trastuzumab LC, HIS/FLAG-tagged, cell-free expressed; constant regions not tied; also called Antibody 1
B9: SRP1848-E03 (antibody, V domains shown)
VH: EVQLVESGGGLAQPGGSLRLSCAASGFNIGNYYIHWVRQAPGKGLEWVGGITPRDGFTDYADSVKGRFTISADTSKNTAYLQVNSLRAEDTAVYYCARGSWSWPAGHSYYLDYWGQGTLVTVSS
VL: not shown
notes: VH/VL only; Fc-bearing IgG format with trastuzumab LC, HIS/FLAG-tagged, cell-free expressed; constant regions not tied; also called Antibody 33
B10: SRP1848-D02 (antibody, V domains shown)
VH: EVQLVESGGGLVQPGGSLRLSCAASGFNISHNYIHWVRQAPGKGLEWVGGITPQDGYTDYADSVKGRFTISADTSKNTAYLQMNRLRAEDTAVYYCARGAWSWRAGYGYYLDYWGQGTLVTVSS
VL: not shown
notes: VH/VL only; Fc-bearing IgG format with trastuzumab LC, HIS/FLAG-tagged, cell-free expressed; constant regions not tied; also called Antibody 24
B11: SRP1848-G01 (antibody, V domains shown)
VH: EVQLVESGGGLVQPGGSLRLSCAASGFNISRHSIHWVRQAPGKGLEWVGWIAPNDGSTDYADSVKGRFTISADTSKNTAYLQMNSLRAEDTAVYYCARGSWAWRSGYSYFLDYWGQGTLVTVSS
VL: not shown
notes: VH/VL only; Fc-bearing IgG format with trastuzumab LC, HIS/FLAG-tagged, cell-free expressed; constant regions not tied; also called Antibody 47
B12: SRP1848-F05 (antibody, V domains shown)
VH: B11 VH with R31K, H32S, W50E, A52Y
VL: not shown
notes: VH/VL only; Fc-bearing IgG format with trastuzumab LC, HIS/FLAG-tagged, cell-free expressed; constant regions not tied; also called Antibody 40
B13: SRP1848-D10 (antibody, V domains shown)
VH: B11 VH with H32N, A52S, S57T, T74G, S100A, A102S, S108G, F110Y, L111I
VL: not shown
notes: VH/VL only; Fc-bearing IgG format with trastuzumab LC, HIS/FLAG-tagged, cell-free expressed; constant regions not tied; also called Antibody 30
B14: SRP1848-H01 (antibody, V domains shown)
VH: EVQLVESGGGLVQPGGSLRLSCAASGFNIRTQSIHWVRQAPGKGLEWIGDIFPIDGITDYADSVKGRFTISADTSKNTAYLQMNSLRAEDTAVYYCARGSWSWPSGMDYYLDYWGQGTLVTVSS
VL: not shown
notes: VH/VL only; Fc-bearing IgG format with trastuzumab LC, HIS/FLAG-tagged, cell-free expressed; constant regions not tied; also called Antibody 55

target: T1, Murine folate receptor alpha (mouse, UniProt P35846 25-232); assay: FACS, CHO-mFOLR1 cells
T1 construct: Stably expressed on CHO cells (CHO-mFOLR1); also called mouse FOLR1; CHO-mFOLR1
T1 sequence (P35846 25-232 limits assumed): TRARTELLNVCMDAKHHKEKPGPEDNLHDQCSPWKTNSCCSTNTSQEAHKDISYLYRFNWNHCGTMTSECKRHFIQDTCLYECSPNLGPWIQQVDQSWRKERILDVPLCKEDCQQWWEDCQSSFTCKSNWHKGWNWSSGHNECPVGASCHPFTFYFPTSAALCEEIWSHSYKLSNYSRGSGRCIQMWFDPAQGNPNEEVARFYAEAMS

Bmax [MFI]	Binder
2350	B1
2000	B2
1980	B3
2180	B4
1860	B5
2890	B6
2740	B7
16500	B8
5940	B9
916	B10
1990	B11
5100	B12
1860	B13
3950	B14

target: T2, Human folate receptor alpha (hFOLR1) (human, UniProt P15328 25-234); assay: FACS, CHO-hFOLR1 cells
T2 construct: Stably expressed on CHO cells (CHO-hFOLR1) for flow cytometry; endogenous on FOLR1-positive KB and Igrov1 cells in the killing assay; also called human FOLR1; FolRα
T2 sequence (P15328 25-234 limits assumed): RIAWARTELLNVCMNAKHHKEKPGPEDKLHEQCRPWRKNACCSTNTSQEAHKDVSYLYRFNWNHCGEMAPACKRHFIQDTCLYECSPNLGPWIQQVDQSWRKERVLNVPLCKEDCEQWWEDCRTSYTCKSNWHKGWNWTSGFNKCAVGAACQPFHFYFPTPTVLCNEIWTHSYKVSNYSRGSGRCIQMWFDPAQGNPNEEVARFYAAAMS
Procedure: CHO cells were transfected to stably express human (CHO-hFOLR1), cynomolgus (CHO-cFOLR1), or mouse (CHO-mFOLR1) target molecule FOLR1 on the cell surface. Parental CHO cells were used as a negative control to determine background binding levels. Parental CHO and stably transfected CHO-hFOLR1, CHO-cFOLR1, and CHO-mFOLR1 cells were cultured in Ham's F-12: high glucose DMEM (50:50) (Corning, Cellgro-Mediatech) supplemented with 10% heat-inactivated fetal bovine serum (Corning, Cellgro-Mediatech), 1% Penicillin/Streptomycin (Corning, Cellgro-Mediatech) and 2 mmol/L-glutamax (Life Technology).
A mixture of fluoresecent-labeled parental CHO cells and unlabeled CHO-hFOLRlcells were prepared as follows. Parental CHO cells were washed twice in PBS and incubated in PBS containing with 1 nM CellTrace™ Oregon Green488® (Life Technologies) at 37° C. for 30 minutes. Labeled parental CHO cells were then washed 2× with Ham's F-12 media and 2× with FACS buffer (PBS with 1% bovine serum albumin). Unlabeled CHO-hFOLR1 cells were similarly washed and prepared. Labeled parental CHO and unlabeled CHO-hFOLR1 cells were combined at 1:1 ratio and seeded at 50 μL per well (200,000 cells per well) in 96 well polypropylene plates. Cells were mixed with 50 μL of test antibodies (i.e., anti-FOLR1 variants) serially diluted in FACS buffer and incubated on ice for 60 mins. Cells were washed with FACS buffer and incubated on ice for 60 mins with 100 μL FACS buffer containing 2.5 μg/mL R-Phycoerythrin-conjugated goat anti-Human IgG (Jackson ImmunoResearch Laboratories, West Grove, Pa.). Cells were washed twice with FACS buffer, fixed in 2% paraformaldehyde in PBS (Santa Cruz Biotechnology; Dallas, Tex.) for 10 mins on ice in the dark, and analyzed using the BD LSR II Flow Cytometer (BD Biosciences; San Jose, Calif.). Data were analyzed using FlowJo® software (FlowJo, LLC; Ashland, Oreg.) to determine mean fluorescence intensities. Binding constants were calculated using the statistical software, GraphPad Prism (GraphPad Software; La Jolla, Calif.) using the nonlinear regression equation, one site-specific binding with Hill slope. Secondary antibody alone was used as a control, in addition to measuring non-specific antibody binding to CHO parental cells.

Bmax [MFI]	Binder
25600	B1
25200	B2
24900	B3
25100	B4
25800	B5
25300	B6
27200	B7
25900	B8
26700	B9
28800	B10
27400	B11
27200	B12
26500	B13
27000	B14

target: T3, Cynomolgus folate receptor alpha (cynomolgus monkey, UniProt P15328 25-234 (human entry)); assay: FACS, CHO-cFOLR1 cells
T3 construct: Stably expressed on CHO cells (CHO-cFOLR1); also called cynomolgus FOLR1; CHO-cFOLR1
T3 sequence (P15328 other isoform, or with tags, fused parts or gaps limits assumed): as the sequence (P15328 25-234 limits assumed) above, with I2T, W4R, R37K, Q117R, A146P, H171Y counted along it

Bmax [MFI]	Binder
15800	B1
12500	B2
13700	B3
17700	B4
12800	B5
14200	B6
11800	B7
22600	B8
17400	B9
28000	B10
20900	B11
24700	B12
20600	B13
17200	B14
